Measured values from US20130316958A1 (University of Southern California, priority 2010, published 2013).
Non-standard residues stand in square brackets, D forms with d. No end group written: not given here.

How the values were obtained:
ALL cells = experiment: Tumor cell viability by trypan blue exclusion, ALL cells; type: cell-based; settings: BV-173 and SUP-B15, FIG. 5
Procedure: Tumor cells were treated with peptides at various concentrations for 12 hours and their viability measured by trypan blue exclusion, followed by analyses using the Beckman Coulter Z2 Particle Count and Size Analyzer (BC Z2 CS Analyzer). A minimum of 100 cells per sample using triplicate samples was counted per condition per experiment.

[1] = system: KSHV-infected TREX-BCBL-Vector cells; experiment: GFP-LC3 puncta autophagy assessment after peptide treatment; type: cell-based; settings: 30 or 50 μM peptide, 12 hr
Source text: (§1) The vFLIP α2 (10 aa) and α4 (12 aa) peptides that independently bound Atg3 at high efficiency were fused with the HIV-1 TAT protein transduction domain for intracellular delivery (Gump and Dowdy (2007) Trends Mol. Med. 13:443-448) and tested for their potential effects on autophagy induction. The K-α2 and K-α4 peptides contained KSHV vFLIP aa20-29 and aa128-139 regions, respectively, as retro-inverso versions to circumvent the proteolytic degradation. Mutant peptides K-α2m and K-α4m were also included, which replaced the hydrophobic core residues of the K-α2 (L21F22L23) and K-α4 (F130L-WVY139) peptides with alanines, as well as the C-α2 and C-α4 peptides containing the cFLIPs regions aa19-28 and aa128-139, respectively. At 12 hr post-transfection with GFP-LC3, KSHV-infected TREX-BCBL-Vector and TREX-BCBL-vFLIP cells were incubated with various concentrations of the peptides or rapamycin for an additional 12 hr, followed by an assessment of the GFP-LC3 puncta and cell death. […] Peptide-treated TREX-BCBL-Vector and TREX-BCBL-vFLIP cells were subjected to immunoblotting with αLC3 and aactin.

TREX-BCBL-Vector cells = experiment: Cell death after overnight peptide incubation; type: cell-based; settings: identical conditions, 30 or 50 μM
Source text: as §1

Atg3 [2] = molecular target: T1, Atg3 (Homo sapiens, UniProt Q9NT62); experiment: GST pulldown of KSHV vFLIP α-helix fragments and deletion mutants; type: binding; settings: GST fusions or deletion mutants in HEK293T
T1 construct: GFP (alternative construct GFP-Atg3, not on the same molecule as GST); expressed in transfected cells; host or cells: HEK293T
T1 sequence (Q9NT62 whole entry, the tested form may be a part): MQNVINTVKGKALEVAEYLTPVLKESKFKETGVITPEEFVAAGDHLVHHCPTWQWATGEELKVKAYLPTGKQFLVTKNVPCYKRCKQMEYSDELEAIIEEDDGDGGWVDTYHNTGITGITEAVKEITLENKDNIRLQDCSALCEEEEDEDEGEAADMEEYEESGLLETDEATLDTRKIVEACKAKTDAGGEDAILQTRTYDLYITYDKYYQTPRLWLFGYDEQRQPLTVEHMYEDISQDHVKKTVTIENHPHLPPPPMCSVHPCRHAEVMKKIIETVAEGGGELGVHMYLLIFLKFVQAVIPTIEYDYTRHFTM
Source text: Due to the substantial similarities between DEDI and DED2, Atg3 bound each DED of KSHV vFLIP with a similar affinity. Structural analyses have shown that the DED1 and DED2 of KSHV vFLIP and MCV 159L contain six and five α-helixes, respectively. (Yang et al. (2005) Mol. Cell. 20:939-949); Bagneris et al. (2008) Mol. Cell. 30:620-631). To further define the Atg3 binding sequences, each DED of KSHV vFLIP was divided into small α-helix fragments based on the previous structural analysis and expressed as mammalian GST fusions. Truncated mutant constructs of KSHV-vFLIP and hATG3 were created by subcloning the PCR products of cDNA fragments containing each domain of the associated genes into pcDNA5/FRT/TO. HEK293T cells were transfected with mutant constructs for GST pulldown as described above, followed by immunoblotting with αV5. […] In contrast, vFLIP mutants carrying a loss of 14-3-3σ, IKKαβγ complex, or FADD interaction bound Atg3 and blocked rapamycin-induced autophagy as efficiently as wild-type vFLIP.

NF-κB = NF-κB luciferase reporter assay; type: cell-based; settings: NIH3T3 cells, 48 hr post-transfection
Source text: To determine the effects of the interactions of vFLIP with FADD, IKKαβγ, and 14-3-3σ on anti-autophagy activity, NIH3T3 cells stably expressing various vFLIP mutants were constructed: m14-3-3σ, which lacks 14-3-3σ-binding; mTRAF2, which lacks TRAF2-binding (Guasparri et al. (2006) EMBO Rep. 7:114-119); 67AAA and 58AAA, which have reduced NF-κB activation (Matta and Chaudhary (2004) Proc. Natl. Acad. Sci. USA 101:9399-9404); and mFADD, which lacks FADD-binding (Yang et al. (2005) Mol. Cell. 20:939-949). These cells were treated with either cyclohexamide (CHX) alone or CHX and TNF-α for 12 hr or with 2 μM rapamycin for 3 hr. Propidium iodide (PI) staining and flow cytometry analysis were performed to determine apoptosis levels. Alternatively, NIH3T3 cells containing vector, KSHV vFLIP, or its mutants were transfected with an NF-κB-luciferase reporter construct and a control renilla luciferase plasmid, pRL-SV40 (Promega). At 48 hr post-transfection, luciferase activity was measured with a luminometer using a dual luciferase assay kit (Promega) and normalized with renilla luciferase activity to determine transfection efficiency. GFP-LC3 puncta were detected using an inverted fluorescence microscope and the autophagy levels quantified as means (±SD) of the results from three independent experiments.

NIH3T3 cells = experiment: GFP-LC3 autophagy with ectopic FLIP expression; type: cell-based; settings: Hank's solution 4 hr or 2 μM rapamycin 3 hr
Procedure: At 12-16 hours post-transfection with GFP-LC3, NIH3T3 cells containing vector or the FLIP gene were treated with Hank's solution for 4 hr or with 2 μM rapamycin for 3 hr. Subsequently, GFP-LC3 was detected using an inverted fluorescence microscope, autophagy was quantified as means (±SD) of the combined results from three independent experiments, and autophagosomes were visualized through scanning electron microscopy. NIH3T3-Vector, NIH3T3-KSHV-vFLIP, and NIH3T3-MCV-159L cells were treated with Hank's solution for 4 hr, followed by immunoblotting with anti-LC3 and anti-βTubulin. At 12-16 hr post-transfection with GFP-LC3, TREX-BCBL-Vector and TREX-BCBL-vFLIP cells were treated with doxycycline for 24 hr, followed by incubation with 2 μM rapamycin for an additional 12 hr. The detection of GFP-LC3 and autophagy levels was performed as described above, vFLIP expression was detected by IB with anti-Flag, and autophagosomes were visualized by scanning EM. TNF-induced apoptosis and NF-κB luciferase assay were performed as previously described (Matta and Chaudhary (2004) Proc. Natl. Acad. Sci. USA 101:9399-9404).
The anti-autophagic properties of vFLIP, as well as the related cFLIP, HSV, and MCV, were evaluated by ectopic expression of HVS, vFLIP, MCV 159L, and the short form of cFLIP (cFLIPs) in NIHI3T3 cells. DNA fragments corresponding to the coding sequences of the KSHV-vFLIP, human cFLIPs, MCV-MC159, and HVS-vFLIP genes were amplified via polymerase chain reaction and subcloned into pcDNA5/FRT/TO between the AflII and BamHI restriction sites or pEF-IRES-puro between the AflII and XbaI sites. Starvation studies were carried out by transfecting cells containing vector or the FLIP gene with GFP-LC3, then 12-16 h post-transfection, treating the cells with Hank's solution for 4 hr or with 2 μM rapamycin for 3 hr. Autophagy was assessed by GFP-LC3 redistribution using an inverted fluorescence microscope, quantifying autophagy as means (±SD) of the combined results from three independent experiments. Autophagosomes were visualized through scanning electron microscopy. […]

[3] = system: human Atg3 deletion mutants; experiment: GST pulldown with Atg3 deletion mutants; type: binding; settings: GST-Atg3, N-terminal and C-terminal regions
Source text: The overall structure of yeast Atg3 has a unique hammer-like shape with the N-terminal and C-terminal regions discretely responsible for Atg7 and Atg8 (equivalent to mammalian LC3) binding, respectively. (Yamada et al. (2007) J. Biol. Chem. 282:8036-8043). Based on the structure of yeast Atg3, human Atg3 deletion mutants fused with a GST mammalian expression vector were constructed: GST-Atg31-93, GST-Atg3193-268, GST-Atg3268-315, and GST-Atg3193-315-GST-tagged hATG3 and hATG3 mutant genes were cloned into a pcDNA5/FRT/TO derivative encoding an N-terminal GST epitope tag between the BamHI and NotI sites. GST pulldown with Flag-KSHV vFLIP, Flag-cFLIPs, Flag-MCV 159L, or Flag-HVS vFLIP along with GST-Atg3, GST-Atg3 N-terminal region (Nt), or GST-Atg3 C-terminal region (Ct) was performed as described above and was followed by immunoblotting with aFlag or aGST.

Atg3 [4] = molecular target: T1, Atg3; experiment: Co-immunoprecipitation of FLIP with Atg3 in HEK293T cells; type: binding; settings: endogenously and exogenously expressed Atg3
Procedure: The ability of FLIP to bind to Atg3 was evaluated by co-immunoprecipitation assay. HEK293T cells were transfected with Flag-vFLIP and/or GFP-Atg3 or Flag-vFLIP and/or GST-Atg3, and at 48 hr post-transfection, cells were harvested and lysed in an NP40 buffer supplemented with complete protease inhibitor cocktail (Roche). After pre-clearing with protein A/G agarose beads for 1 hr at 4° C., whole-cell lysates were used for immunoprecipitation with αFlag, αGFP, or GST. Generally, 1-4 μg of the antibody was added to 1 ml of the cell lysate and incubated at 4° C. for 8 to 12 hr. The immunoprecipitates were then washed extensively with a lysis buffer and eluted by boiling them with an SDS loading buffer for 5 min. Following immunoprecipitation, samples were treated to immunoblot using αAtg3 (1:500) (Novus).

[5] = molecular target: T2, Atg3 (human Atg3, E2-like enzyme of the LC3 conjugation system) (human, UniProt Q9NT62 1-314); experiment: co-immunoprecipitation from HEK293T cells
T2 construct: also called hATG3; GFP-Atg3
T2 sequence (Q9NT62 whole entry): as the sequence (Q9NT62 whole entry, the tested form may be a part) above

[6] = molecular target: T2, Atg3 (human Atg3, E2-like enzyme of the …); experiment: binding of Atg3 to the separate DEDs of vFLIP; method not detailed

## RRRQRRKKRGY-G-NEMCAAAHAATQ [K-α4m]
ALL cells
  anticancer activity in ALL cell lines: significant anticancer activities
[1]
  autophagy induction (GFP-LC3 puncta): no increase in autophagy
TREX-BCBL-Vector cells
  cell death (in words): no increase in autophagy nor cell death

## QTFLHWVYCMEN [DED2 α4 helix]
Atg3 [2]
  Atg3 binding (GST pulldown): individually sufficient for Atg3 binding

## RRRQRRKKRGY-G-FVNLAAAVVE [K-α2m]
[1]
  autophagy induction (GFP-LC3 puncta): no increase in autophagy
TREX-BCBL-Vector cells
  cell death (in words): no increase in autophagy nor cell death

## RRRQRRKKRGY-G ([dR][dR][dR][dQ][dR][dR][dK][dK][dR]G[dY]G; not fully specified; printed as RRRQRRKKRGY-G) [HIV-1 TAT only, HIV-1 TAT protein transduction domain alone, reference compound]
[1]
  autophagy induction (GFP-LC3 puncta): no increase in autophagy
TREX-BCBL-Vector cells
  cell death (in words): no increase in autophagy nor cell death

B1: MCV 159L (MCV vFLIP) (other)
chain: MSDSKEVPSLPFLRHLLEELDSHEDSLLLFLCHDAAPGCTTVTQALCSLSQQRKLTLAALVEMLYVLQRMDLLKSRFGLSKEGAEQLLGTSFLTRYRKLMVCVGEELDSSELRALRLFACNLNPSLSTALSESSRFVELVLALENVGLVSPSSVSVLADMLRTLRRLDLCQQLVEYEQQEQARYRYCYAASPSLPVRTLRRGHGASEHEQLCMPVQESSDSPELLRTPVQESSSDSPEQTT
notes: also called MCV-MC159; MCV MC159
NF-κB
  NF-κB activation: did not carry out NF-κB activation
NIH3T3 cells
  suppression of starvation- and rapamycin-induced autophagy: strongly suppressed starvation- and rapamycin-induced autophagy
[3]
  Atg3 region bound (GST pulldown): Atg3 binding patterns similar to KSHV vFLIP
Atg3 [4]
  interaction with Atg3 (co-immunoprecipitation): interacted with Atg3 as efficiently as KSHV-vFLIP
[5]
  binding result: binds

B2: KSHV vFLIP DED1 (other)
chain: MATYEVLCEVARKLGTDDREVVLFLLNVFIPQPTLAQLIGALRALKEEGRLTFPLLAECLFRAGRRDLLRDLLHLDPRFLERHLAGTMSY
notes: also called DED1 of KSHV vFLIP
[6]
  binding result: binds

B3: HVS vFLIP (other)
chain: MDLKTTVLHITDSFTEEEMYCLLFLINGCIPRNCNAVKISDLIIETLSKSTQWDICLTQCLYVLRKIELLLNLFQVTKEDVKQSFFTQLQLETHVLTLVNVNNNLTAKDEKRLCFILDQFFPRNVVASSVILCVFSNMLCEMPVLECLCQLKKCLKQIGRSDLAKTV
notes: also called Flag-HVS vFLIP
NIH3T3 cells
  suppression of starvation- and rapamycin-induced autophagy: strongly suppressed starvation- and rapamycin-induced autophagy
[3]
  Atg3 region bound (GST pulldown): Atg3 binding patterns similar to KSHV vFLIP
Atg3 [4]
  interaction with Atg3 (co-immunoprecipitation): interacted with Atg3 as efficiently as KSHV-vFLIP
[5]
  binding result: binds

B4: KSHV vFLIP DED2 (other)
chain: FSPYQLTVLHVDGELCARDIRSLIFLSKDTIGSRSTPQTFLHWVYCMENLDLLGPTDVDALMSMLRSLSRVDLQRQVQTLMGLHLSGPSHSQHYRHTP
notes: also called DED2 of KSHV vFLIP
[6]
  binding result: binds
